From the DeepSol protein solubility set

Assay: soluble on expression in E. coli; label from the status in PepcDB or PDB records

Soluble on expression in E. coli, not soluble:
MGSDKIHHHHHHMSQNVYIGMTLKPWPILLDHYSMSYDGRVSVKSIGYGMHLFKYHGCIMLATRTKVDSTMAYDTITVSAPWWAKDKLHSFLEDTRGDISTEPKVNIFEETEWCRYGILKSSGFSELVLDEGFKQELMGEVDNFASRGESVVSKLTILLHGKTGTGKTGIARALAVEYHRDLYILNLSTVNDATIHKAIRKVPPGAMLLIEDCDCVKATVSRTAESNADNPPLTLGGVLNALDGIIPLDDCLVIMTTNHPDNLDPALIRKGRVDVSIEVPLISAKQVNEDYFERFGAVLNRTEPLLGCEVYELHRRANLRYGVCCKPV
MGSDKIHHHHHHMSQPLLSLPIDVLNIISKAMPTTLFQQLATQCTEVSFLNTGISNVNIKLSCEDGDKVLRVNQPHSNWCDRSLEVECWQAAIVANIAPVLIWVSDDKQVYLSEFIHQPETDWSIFASMRSHLSLGQSTNQSISAVDAVPLLSALFCKLSTLPVPNKSITVTEQWQQYAYQLDSLTESQIDPQWHDAWQQLLRLNGLVRHWLSQLEACVLLPTFCHRDLTPHNLLLSGRAPHQLFCIDYEYAVASHPLFDLASVVASHKLSTIQVNQLIDNVIMQYCQAASLTDVAAAKAALPAAINCFWLFSAMWALLMAAKEPQKVTQYLQYFTYYLTLITC
MGSDKIHHHHHHMSQPPLPAVCTQAASALLPVAIDYPAALALRQMAMQHDDYPKYLLAPEVSALLHYVPDLHRRMLLATLWNTGARINEALALTRGDFSLAPPYPFVQLATLKQRAEKAARTAGRMPSGSQPHRLVPLSDNQYVSELQMMVATLKIPLERRNRRTGRTEKARLWEITDRTVRTWIGEAVEAAAADDVTFSVPVTPHTFRHSYAMHMLYAGIPLKVLQALMGHKSVSSTEVYTKVFALDVAARHRVQFQMPGADAVAMLKGGS
MGSDKIHHHHHHMSQQQPPAPVEGYQDMVHAAESQFDREQFKQLLMDMVNIPSPTGEEAELARYMADHMTANGLQGQTQYLDDQQANAIGKLPSRSKQGPELLLYASFDTHLGGSDEEERWAGQPLPSMLRPQARLEGDEISGLGAENPKAYAACVTTAATCIAKAGLELPGELTVGLGAGGMTALSRPGFSRRNIGHGAGVMFMLQRGYRPDYCVMCKPVYAVAWEEVGICNFTIRVKGAMGYVGVRHMMPQDQNPFPQVAKVIEALEAWFPTYTARHTSGLVAPQGGISAIEGGWPHKPIITTADVVLHVDIRPSPRTDPVQVKRELQAMLTELSQQHPDVVTELEATLAIPGATTSPDNWIIQSMIRAWEDVEQTPHEPFLNMSGYTDLSVIRQWGVPAARLGVPFRHQEPDPEDSLPMNRVHLDDCYRLIQVLIRSAIDTCSRPIEITQQYQ
MGSDKIHHHHHHMSQTQQSASITSETQSFDVILVGGGMVGAATAIGLAQQGLHIAVIESFAPEAYSPEQALDVRVSAISVASEHLLEQLGALDSLLKMRNVPYLGLETWELDGCITQFHSSQIGASHLGHIVENRLVQLALWEQMQQWENIRLFCPERVAHFARGVDTVSVHLQSGCLLEAKLLVGADGANSHVRQWAGIGISGWDYAQSAMLINIQTTQGQQDVTWQQFTPSGPRSLLPLPGNHASLVWYDDANRIKQLMQLNNKQLAEQIRQHFPARLDSDFIVEAKGSFALTRRHAQVYVKPNVVILGDAAHTINPLAGQGVNLGFKDVEALLSVIKAALTEDKPWWSTEVLGKYQAKRYLDNQLMMTTMDVFYAGFSNDILPLKLLRNGALKLANINSPLKQTVLKYAMGLN
MGSDKIHHHHHHMSQVNALQLTGISKSFDGFKALIDADFTACWGEVHALLGENGAGKSSLMNIAAGLYAPETGTLMLDDNPVQLQGPKDASRYRIGMVHQHFKLVKPFTVAQNILLALPEQPGEGSYRKRLRMLERDIVRKAEELGFAIDPSRVVDSLSVAEQQRVEILKVLLAGARILILDEPTAVLTDQEAERLLLTVQAFARQGAAVILVTHKMADVKRYADRVTVMRGGRTIQTLDPQRVSVEQLVQLTVGESVPVAAHHPAVPGEVRLQVKDLRSVGGSALNGVNMTLRAGQIYGIAGVGGNGQAELANALMGLPQATEGDIHLAPFGDLRNASAEQRRQLRIASIPADRYGAALAGSLSVAENFGIGNIHSGHYGSFWRLGYKRLKQDAQRAVESFDVQGVRSLDQKAALLSGGNAQKLVIAREFSRDPQLVLVHSPSRGLDVRATQAVHDRLRAARDAGAAVLLISEDLDEVLALADRIGVMNGGRIVAEFDHPADRQAIGKAMVSHD
